Results on 7 molecules are retold here after publication PMC8748511 (Nature Communications, 2022).

The chains are these.
B1: H5 (VHH)
VHH: QVQLVESGGGLVQPGGSLRLSCAASGVTLDDYAIGWFRQAPGKEREGVSFITSSDGSTFYVDSVKGRFTIARDNAKNTVYLQMNALTPEDTAVYYCAVGPSFSSTGSTYYRSELPWDYDYWGQGTQVTVSS
B2: H7 (VHH)
VHH: QVQLVESGGGLVQPGGSLRLSCAASGFTLDDYAIGWFRQAPGKEREGVSFITSSDGSTYYVASVKGRFTISRDNAKNTVYLQMNDLTPEDTAVYYCAVGPSFSYTGSTYYRSELPWDYDYWGQGTQVTVSS
B3: H8 (VHH)
VHH: QVQLVESGGGLVQPGGSLRLSCAASGFTLDDYAIGWFRQAPGKEREGISFITSSDGSTYYVDSVKGRFTISRDNAKNTVYLQMNDLTPEDTAVYYCAVGPSFSYTGSTYYRSELPWDYDYWGQGTQVTVSS
B4: H10 (VHH)
VHH: QVQLVESGGGLVQPGGSLRLSCAASGFTLDDYAIGWFRQAPGKEREGVSFITSSDGSTYYVDSVKGRFAISRDNAKNTVYLQMNSLTPEDTAVYYCAVGPSFSRTGSTYYRSVLPWDYDYWGQGTQVTVSS
B5: H6 (VHH)
VHH: QVQLVESGGGLVQPGGSLRLSCAASGFTLDDYAIGWFRQAPGKEREGVSFITSSDGSTYYVDSVKGRFTISRDNAKNTVYLQMNSLTPEDTAVYYCAVGPSFSYTGSTYYRSVLPWDYDYWGQGTQVTVSS
B6: H9 (VHH)
VHH: QVQLVESGGGLVQPGGSLRLSCAASGFTLDDYAIAWFRQAPGKEREGVSFITSSDGSTYYVDSVKGRFTISRDNAKNTVYLQMNDLTPEDTAVYYCAVGPSFSYTGSTYYRSELPWDYDYWGQGTQVTVSS
B7: H11 (VHH)
VHH: QVQLVESGGGLVQPGGSLRLSCAASGLTLDDYAIGWFRQAPGKEREGVSFITSSDGSTYYVDSVKGRFTISRDNAKNTVYLQMNSLTPEDTAVYYCAVGPSFSYTGSTYYRSTLPWDYDYWGQGTQVTVSS

This test addresses SARS-CoV-2 spike receptor binding domain (RBD) (SARS-CoV-2, founder (Wuhan-Hu-1) …, UniProt P0DTC2, amine-PEG3-biotin attached with sortase A at the C-terminal sortase motif (for SPR)).
Consider B1, for which the binding result is on record as “binds”.

In the case of B2, the binding result is “binds”.

Regarding B3, the binding result is recorded as “binds”.

As for B4, the binding result is reported as “binds”.

B5: the binding result is on record as “binds”.

Regarding B6, the binding result is given as “binds”.

With B7, the binding result is given as “binds”.
